Measurements taken from publication PMC2253824, “The Human TPR Protein TTC4 Is a Putative Hsp90 Co-Chaperone Which Interacts with CDC6 and Shows Alterations in Transformed Cells” (PLoS ONE, 2008).

T1: Drosophila Cdc6, two-hybrid fusion (Drosophila, UniProt Q9VSM9 1-662)
T1 construct: Cdc6 of Drosophila; construct not described; Two-hybrid fusion; also called DmCdc6; source: yeast two-hybrid fusion
T1 sequence (looked up): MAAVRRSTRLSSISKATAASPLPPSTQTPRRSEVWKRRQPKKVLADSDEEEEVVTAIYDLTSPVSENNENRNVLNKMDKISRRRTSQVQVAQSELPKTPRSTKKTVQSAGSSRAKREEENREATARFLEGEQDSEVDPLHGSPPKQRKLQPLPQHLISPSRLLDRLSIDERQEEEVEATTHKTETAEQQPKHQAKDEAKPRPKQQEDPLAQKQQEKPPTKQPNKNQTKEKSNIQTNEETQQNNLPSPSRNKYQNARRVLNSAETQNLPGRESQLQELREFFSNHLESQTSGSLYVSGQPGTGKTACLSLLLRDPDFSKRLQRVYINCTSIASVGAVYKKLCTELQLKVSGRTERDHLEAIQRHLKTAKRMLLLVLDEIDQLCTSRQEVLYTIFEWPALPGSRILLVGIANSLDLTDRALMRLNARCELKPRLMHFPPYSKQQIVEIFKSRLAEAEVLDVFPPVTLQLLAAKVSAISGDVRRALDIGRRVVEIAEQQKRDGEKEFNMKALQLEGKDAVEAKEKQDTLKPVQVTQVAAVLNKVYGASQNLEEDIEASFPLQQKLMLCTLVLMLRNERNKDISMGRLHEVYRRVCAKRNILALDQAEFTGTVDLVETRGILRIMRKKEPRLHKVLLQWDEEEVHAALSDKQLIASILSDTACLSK

T2: human CDC6, two-hybrid fusion in pEG202 (human, UniProt Q99741 1-560)
T2 construct: CDC6, human; clone from A. Dutta, cloned in the BamH1 and Not1 sites of pEG202; also called HuCDC6; hCDC6; source: yeast two-hybrid fusion
T2 sequence (looked up): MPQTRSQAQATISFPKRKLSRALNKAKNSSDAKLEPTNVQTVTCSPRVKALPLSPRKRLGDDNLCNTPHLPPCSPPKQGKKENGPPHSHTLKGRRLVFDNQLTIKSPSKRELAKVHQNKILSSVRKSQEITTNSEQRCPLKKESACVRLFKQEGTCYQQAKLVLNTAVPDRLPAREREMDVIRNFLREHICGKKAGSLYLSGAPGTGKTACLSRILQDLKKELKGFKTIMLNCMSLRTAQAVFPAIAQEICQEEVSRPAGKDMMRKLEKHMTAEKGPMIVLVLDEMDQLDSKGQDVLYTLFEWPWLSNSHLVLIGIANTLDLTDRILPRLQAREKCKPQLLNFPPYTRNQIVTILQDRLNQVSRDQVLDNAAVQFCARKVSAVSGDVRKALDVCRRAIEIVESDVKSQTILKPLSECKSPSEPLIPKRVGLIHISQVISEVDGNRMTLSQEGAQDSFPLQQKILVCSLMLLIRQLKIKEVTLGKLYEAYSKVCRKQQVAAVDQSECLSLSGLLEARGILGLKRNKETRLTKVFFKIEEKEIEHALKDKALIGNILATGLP

T3: human DNA polymerase alpha large subunit, two-hybrid fusion (human, UniProt P09884 1-1462)
T3 construct: DNA polymerase alpha large (catalytic) subunit, human; Two-hybrid fusion; also called HDPa; source: yeast two-hybrid fusion
T3 sequence (looked up): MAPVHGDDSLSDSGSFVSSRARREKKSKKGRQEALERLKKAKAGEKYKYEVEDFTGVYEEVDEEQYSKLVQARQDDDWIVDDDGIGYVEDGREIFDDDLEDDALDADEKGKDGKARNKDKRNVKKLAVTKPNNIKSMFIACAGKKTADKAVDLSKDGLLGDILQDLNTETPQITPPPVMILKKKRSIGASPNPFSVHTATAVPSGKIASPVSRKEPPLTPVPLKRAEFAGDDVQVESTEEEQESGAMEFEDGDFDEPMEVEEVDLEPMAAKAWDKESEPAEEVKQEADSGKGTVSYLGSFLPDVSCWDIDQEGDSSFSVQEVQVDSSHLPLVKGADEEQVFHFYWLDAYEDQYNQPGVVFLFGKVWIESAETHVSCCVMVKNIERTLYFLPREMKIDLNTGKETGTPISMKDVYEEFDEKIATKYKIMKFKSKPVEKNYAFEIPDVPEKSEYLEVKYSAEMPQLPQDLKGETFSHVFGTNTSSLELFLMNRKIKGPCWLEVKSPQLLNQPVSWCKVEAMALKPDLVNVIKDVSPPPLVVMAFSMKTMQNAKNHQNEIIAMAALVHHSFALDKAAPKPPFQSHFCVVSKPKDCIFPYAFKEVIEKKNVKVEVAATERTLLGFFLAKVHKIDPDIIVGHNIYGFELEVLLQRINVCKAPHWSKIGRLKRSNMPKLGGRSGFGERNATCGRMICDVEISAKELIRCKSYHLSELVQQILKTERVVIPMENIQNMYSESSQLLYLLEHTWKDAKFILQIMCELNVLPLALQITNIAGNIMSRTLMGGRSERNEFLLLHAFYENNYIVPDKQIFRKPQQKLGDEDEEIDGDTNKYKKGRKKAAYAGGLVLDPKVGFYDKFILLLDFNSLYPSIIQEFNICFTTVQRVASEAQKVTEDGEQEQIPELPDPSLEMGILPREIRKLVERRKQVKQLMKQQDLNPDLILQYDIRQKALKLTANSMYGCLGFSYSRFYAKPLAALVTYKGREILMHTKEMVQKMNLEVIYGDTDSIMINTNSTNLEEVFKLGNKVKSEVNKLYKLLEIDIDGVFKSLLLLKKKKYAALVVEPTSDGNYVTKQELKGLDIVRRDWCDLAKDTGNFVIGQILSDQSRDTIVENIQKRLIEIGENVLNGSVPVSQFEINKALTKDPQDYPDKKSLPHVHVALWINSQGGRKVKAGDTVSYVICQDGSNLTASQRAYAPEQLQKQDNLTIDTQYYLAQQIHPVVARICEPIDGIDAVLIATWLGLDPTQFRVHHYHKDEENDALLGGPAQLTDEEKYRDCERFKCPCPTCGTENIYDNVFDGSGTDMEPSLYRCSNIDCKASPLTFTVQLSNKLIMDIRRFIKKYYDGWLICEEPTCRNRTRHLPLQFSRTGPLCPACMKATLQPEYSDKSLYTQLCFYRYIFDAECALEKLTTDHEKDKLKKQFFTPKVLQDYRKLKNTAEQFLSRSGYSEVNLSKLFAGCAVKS


Columns and labels:
Conditions in all cases: partners not purified
[1] = target: T1, Drosophila Cdc6, two-hybrid fusion; test: two-hybrid; TTC4 with Drosophila proteins; data not shown
[2] = target: T4, Drosophila Hsp90, two-hybrid fusion (Drosophila, UniProt P02828 1-717); test: as above
T4 construct: Hsp90 (Hsp83) of Drosophila; construct not described; Two-hybrid fusion; also called DmHsp90; source: yeast two-hybrid fusion

[3] = target: T2, human CDC6, two-hybrid fusion in pEG202; test: two-hybrid; quantitative liquid beta-galactosidase assays; values as a percentage of the cdc6/TTC4 interaction
[4] = target: T3, human DNA polymerase alpha large …; test: as above
[5] = target: T5, human HSP70 protein 8 (HSPA8), two-hybrid fusion in pEG202 (human, UniProt P11142 1-646); test: as above
T5 construct: HSP70 protein 8 (HSPA8), human full length cDNA clone from Origene, cloned in the BamH1 and Xho1 sites of pEG202; also called HuHSP70; source: yeast two-hybrid fusion

[6] = target: T6, human HSP90 protein 1 beta (HSPCB), two-hybrid fusion in pEG202 (human, UniProt P08238 1-724); test: as above
T6 construct: HSP90 protein 1 beta (HSPCB), human full length cDNA clone from Origene, cloned in the Not1 and Xho1 sites of pEG202; also called HuHSP90; huHSP90; source: yeast two-hybrid fusion
T6 sequence (P08238 whole entry, the tested form may be a part): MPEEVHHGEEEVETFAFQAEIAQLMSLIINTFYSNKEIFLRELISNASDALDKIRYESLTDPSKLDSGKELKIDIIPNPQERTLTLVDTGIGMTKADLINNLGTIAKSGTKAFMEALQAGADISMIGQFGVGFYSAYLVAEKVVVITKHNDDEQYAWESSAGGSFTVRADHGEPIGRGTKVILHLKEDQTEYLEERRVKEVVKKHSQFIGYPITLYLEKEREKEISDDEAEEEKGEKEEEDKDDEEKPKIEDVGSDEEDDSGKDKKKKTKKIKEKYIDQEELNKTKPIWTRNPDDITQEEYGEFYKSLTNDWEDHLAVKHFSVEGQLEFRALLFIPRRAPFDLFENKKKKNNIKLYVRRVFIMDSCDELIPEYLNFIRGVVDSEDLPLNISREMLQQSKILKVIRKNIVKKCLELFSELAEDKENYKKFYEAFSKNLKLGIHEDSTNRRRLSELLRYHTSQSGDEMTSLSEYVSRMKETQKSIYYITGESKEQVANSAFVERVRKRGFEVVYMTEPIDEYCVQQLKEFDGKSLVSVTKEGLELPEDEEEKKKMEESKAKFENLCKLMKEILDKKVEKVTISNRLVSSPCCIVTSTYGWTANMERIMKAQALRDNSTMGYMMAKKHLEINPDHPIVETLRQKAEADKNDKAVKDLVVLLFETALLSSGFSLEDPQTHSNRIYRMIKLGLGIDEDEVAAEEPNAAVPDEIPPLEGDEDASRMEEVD

T5 sequence (P11142 whole entry, the tested form may be a part): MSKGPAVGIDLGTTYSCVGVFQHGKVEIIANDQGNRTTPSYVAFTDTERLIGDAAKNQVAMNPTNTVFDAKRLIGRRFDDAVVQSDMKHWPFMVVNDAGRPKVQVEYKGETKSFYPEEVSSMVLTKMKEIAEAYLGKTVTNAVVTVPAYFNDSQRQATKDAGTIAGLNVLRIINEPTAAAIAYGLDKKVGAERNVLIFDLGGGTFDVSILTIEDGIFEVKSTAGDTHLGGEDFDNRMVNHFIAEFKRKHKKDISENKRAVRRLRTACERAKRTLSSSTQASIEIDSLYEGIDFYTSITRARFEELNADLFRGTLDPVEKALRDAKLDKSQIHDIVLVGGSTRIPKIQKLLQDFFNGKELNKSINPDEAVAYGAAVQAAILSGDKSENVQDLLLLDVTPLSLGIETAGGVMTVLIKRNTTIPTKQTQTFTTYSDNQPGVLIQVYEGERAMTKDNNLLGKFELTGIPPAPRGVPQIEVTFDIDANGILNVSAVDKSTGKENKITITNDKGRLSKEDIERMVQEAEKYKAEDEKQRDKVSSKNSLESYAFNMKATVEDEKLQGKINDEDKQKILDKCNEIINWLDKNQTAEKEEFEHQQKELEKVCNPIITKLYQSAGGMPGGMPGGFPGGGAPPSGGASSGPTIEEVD
T4 sequence (P02828 whole entry, the tested form may be a part): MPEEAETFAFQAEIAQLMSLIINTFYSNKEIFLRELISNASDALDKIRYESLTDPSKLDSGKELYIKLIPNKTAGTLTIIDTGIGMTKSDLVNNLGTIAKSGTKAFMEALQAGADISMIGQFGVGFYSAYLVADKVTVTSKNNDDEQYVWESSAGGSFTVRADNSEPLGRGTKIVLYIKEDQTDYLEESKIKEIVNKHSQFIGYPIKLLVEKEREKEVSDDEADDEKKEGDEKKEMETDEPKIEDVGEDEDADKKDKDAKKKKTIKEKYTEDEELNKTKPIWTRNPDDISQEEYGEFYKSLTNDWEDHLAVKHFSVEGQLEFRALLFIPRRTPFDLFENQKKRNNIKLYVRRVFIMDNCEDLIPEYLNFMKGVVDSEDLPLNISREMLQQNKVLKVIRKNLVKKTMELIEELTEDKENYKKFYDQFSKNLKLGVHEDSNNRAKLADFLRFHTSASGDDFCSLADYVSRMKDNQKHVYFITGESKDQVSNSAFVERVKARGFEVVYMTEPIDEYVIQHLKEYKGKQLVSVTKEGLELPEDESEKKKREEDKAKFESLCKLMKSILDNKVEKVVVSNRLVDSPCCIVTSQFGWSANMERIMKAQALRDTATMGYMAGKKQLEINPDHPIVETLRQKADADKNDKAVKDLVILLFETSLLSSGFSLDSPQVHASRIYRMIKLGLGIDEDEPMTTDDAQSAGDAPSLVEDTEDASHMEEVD

Row | Binder | two-hybrid strength relative to TTC4 with human CDC6 [1] [%] | two-hybrid strength relative to TTC4 with huHSP90 [2] [%] | two-hybrid beta-galactosidase, percentage of the cdc6/TTC4 interaction [3] [%] | two-hybrid beta-galactosidase, percentage of the cdc6/TTC4 interaction [4] [%] | two-hybrid beta-galactosidase, percentage of the cdc6/TTC4 interaction [5] [%] | two-hybrid beta-galactosidase, percentage of the cdc6/TTC4 interaction [6] [%]
1 | human TTC4, two-hybrid fusion in pJG4.5 (natural protein, UniProt O95801 1-387, looked up, TTC4 (tetratricopeptide repeat protein 4), human; full length gene, insert amplified and cloned in the EcoR1 and Xho sites of pJG4.5; source: yeast two-hybrid fusion) MEQPGQDPTSDDVMDSFLEKFQSQPYRGGFHEDQWEKEFEKVPLFMSRAPSEIDPRENPDLACLQSIIFDEERSPEEQAKTYKDEGNDYFKEKDYKKAVISYTEGLKKKCADPDLNAVLYTNRAAAQYYLGNFRSALNDVTAARKLKPCHLKAIIRGALCHLELKHFAEAVNWCDEGLQIDAKEKKLLEMRAKADKLKRIEQRDVRKANLKEKKERNQNEALLQAIKARNIRLSEAACEDEDSASEGLGELFLDGLSTENPHGARLSLDGQGRLSWPVLFLYPEYAQSDFISAFHEDSRFIDHLMVMFGETPSWDLEQKYCPDNLEVYFEDEDRAELYRVPAKSTLLQVLQHQRYFVKALTPAFLVCVGSSPFCKNFLRGRKVYQIR | 50 | 50 | 100 | < 5 | 80 | 100
2 | TTC4-230AC (77EA), two-hybrid fusion in pJG4.5 (natural protein, human, UniProt O95801 1-387, looked up, TTC4, human, with a point mutation reported in melanoma samples, made by site-directed mutagenesis in TTC4 (pJG4.5); also called TTC4 codon 77 E to A; source: yeast two-hybrid fusion) MEQPGQDPTSDDVMDSFLEKFQSQPYRGGFHEDQWEKEFEKVPLFMSRAPSEIDPRENPDLACLQSIIFDEERSPEAQAKTYKDEGNDYFKEKDYKKAVISYTEGLKKKCADPDLNAVLYTNRAAAQYYLGNFRSALNDVTAARKLKPCHLKAIIRGALCHLELKHFAEAVNWCDEGLQIDAKEKKLLEMRAKADKLKRIEQRDVRKANLKEKKERNQNEALLQAIKARNIRLSEAACEDEDSASEGLGELFLDGLSTENPHGARLSLDGQGRLSWPVLFLYPEYAQSDFISAFHEDSRFIDHLMVMFGETPSWDLEQKYCPDNLEVYFEDEDRAELYRVPAKSTLLQVLQHQRYFVKALTPAFLVCVGSSPFCKNFLRGRKVYQIR |  |  | < 5 |  | 70 | 75
3 | TTC4-125TA (42VD), two-hybrid fusion in pJG4.5 (natural protein, human, UniProt O95801 1-387, looked up, TTC4, human, with a point mutation reported in melanoma samples, made by site-directed mutagenesis in TTC4 (pJG4.5); also called TTC4 codon 42 V to D; source: yeast two-hybrid fusion) MEQPGQDPTSDDVMDSFLEKFQSQPYRGGFHEDQWEKEFEKDPLFMSRAPSEIDPRENPDLACLQSIIFDEERSPEEQAKTYKDEGNDYFKEKDYKKAVISYTEGLKKKCADPDLNAVLYTNRAAAQYYLGNFRSALNDVTAARKLKPCHLKAIIRGALCHLELKHFAEAVNWCDEGLQIDAKEKKLLEMRAKADKLKRIEQRDVRKANLKEKKERNQNEALLQAIKARNIRLSEAACEDEDSASEGLGELFLDGLSTENPHGARLSLDGQGRLSWPVLFLYPEYAQSDFISAFHEDSRFIDHLMVMFGETPSWDLEQKYCPDNLEVYFEDEDRAELYRVPAKSTLLQVLQHQRYFVKALTPAFLVCVGSSPFCKNFLRGRKVYQIR |  |  | 95 |  | 65 | 80
4 | TTC4-201TG (67IM), two-hybrid fusion in pJG4.5 (natural protein, human, UniProt O95801 1-387, looked up, TTC4, human, with a point mutation reported in melanoma samples, made by site-directed mutagenesis in TTC4 (pJG4.5); also called TTC4 codon 67 I to M; source: yeast two-hybrid fusion) MEQPGQDPTSDDVMDSFLEKFQSQPYRGGFHEDQWEKEFEKVPLFMSRAPSEIDPRENPDLACLQSMIFDEERSPEEQAKTYKDEGNDYFKEKDYKKAVISYTEGLKKKCADPDLNAVLYTNRAAAQYYLGNFRSALNDVTAARKLKPCHLKAIIRGALCHLELKHFAEAVNWCDEGLQIDAKEKKLLEMRAKADKLKRIEQRDVRKANLKEKKERNQNEALLQAIKARNIRLSEAACEDEDSASEGLGELFLDGLSTENPHGARLSLDGQGRLSWPVLFLYPEYAQSDFISAFHEDSRFIDHLMVMFGETPSWDLEQKYCPDNLEVYFEDEDRAELYRVPAKSTLLQVLQHQRYFVKALTPAFLVCVGSSPFCKNFLRGRKVYQIR |  |  | 95 |  | 70 | 90
5 | TTC4-651-TA (217NK), two-hybrid fusion in pJG4.5 (natural protein, human, UniProt O95801 1-387, looked up, TTC4, human, with a point mutation reported in melanoma samples, made by site-directed mutagenesis in TTC4 (pJG4.5); also called TTC4 codon 217 N to K; source: yeast two-hybrid fusion) MEQPGQDPTSDDVMDSFLEKFQSQPYRGGFHEDQWEKEFEKVPLFMSRAPSEIDPRENPDLACLQSIIFDEERSPEEQAKTYKDEGNDYFKEKDYKKAVISYTEGLKKKCADPDLNAVLYTNRAAAQYYLGNFRSALNDVTAARKLKPCHLKAIIRGALCHLELKHFAEAVNWCDEGLQIDAKEKKLLEMRAKADKLKRIEQRDVRKANLKEKKERKQNEALLQAIKARNIRLSEAACEDEDSASEGLGELFLDGLSTENPHGARLSLDGQGRLSWPVLFLYPEYAQSDFISAFHEDSRFIDHLMVMFGETPSWDLEQKYCPDNLEVYFEDEDRAELYRVPAKSTLLQVLQHQRYFVKALTPAFLVCVGSSPFCKNFLRGRKVYQIR |  |  | < 5 |  | 70 | 90
